In US20160015831A1 (BIOALLIANCE C V, published 2016):
Where two headings read alike, the source gives them in different places. Each block holds one binder with its values, some of them ahead of it.

Columns and labels:
human CD22 [1] = target: T1, human CD22 (human, UniProt P20273 20-847); assay: flow cytometry, Daudi cells, unconjugated Ab 3.3 µg/mL
T1 construct: Endogenous CD22 on human cell lines Daudi, Raji, Ramos, RL, REH and NALM-6; no signal peptide limits are stated; also called antigen CD22
Method: (§1) 6×10⁴˜1×10⁵ cells were seeded per well in a v-bottomed 96-well plate and incubated with 100 μl of the unconjugated Abs or the ADCs at titrated concentrations or isotype control antibody human IgG at 10 μg/mL. After 30-60 minutes of incubation at 4° C., cells were washed once with 200 μl FACS buffer (lx PBS containing 1% FBS), stained with 100 μl of 1 μg/ml goat F(ab′)2-anti-human IgG (H+L)-RPE (Southern Biotech, Cat. No. 2043-09) in FACS buffer and then incubated at 4° C. for 30˜60 min Cells were washed once with FACS buffer and analyzed by flow cytometer (BD LSR, BD Life Sciences).
(§2) The binding ability of hLL2-Cys variants with or without drug conjugation was evaluated in Daudi and REH cancer cells.

human CD22 [2] = target: T1, human CD22; assay: cell-based or functional assay
human CD22 [3] = target: T1, human CD22; assay: flow cytometry, REH cells, Tap18Hr1 conjugate 3.3 µg/mL
Method: as §1
(§3) In general, the site-specific conjugated hLL2-IgG4p ADCs retained antigen reactivity of antibody.

human CD22 [4] = target: T1, human CD22; assay: flow cytometry, Daudi cells, Tap18Hr1 conjugate 3.3 µg/mL
Method: as §1, §3

human CD22 [5] = target: T1, human CD22; assay: cell-based or functional assay; remark: listed apart in the source
human CD22 [6] = target: T1, human CD22; assay: flow cytometry, Daudi cells, Tap18Hr1 conjugate 3.3 µg/mL; remark: listed apart in the source
Method: as §1, §2

human CD22 [7] = target: T1, human CD22; assay: flow cytometry, REH cells, unconjugated Ab 3.3 µg/mL
Method: as §1, §3

human CD22 [8] = target: T1, human CD22; assay: flow cytometry, Daudi cells, unconjugated Ab 3.3 µg/mL; remark: listed apart in the source
Method: as §1, §3

- MFI (human CD22 [3]): 66
- MFI (human CD22 [4]): 515
B3: hLL2-T155C-IgG4p-Tap18Hr1 (antibody, name in EU numbering)
heavy: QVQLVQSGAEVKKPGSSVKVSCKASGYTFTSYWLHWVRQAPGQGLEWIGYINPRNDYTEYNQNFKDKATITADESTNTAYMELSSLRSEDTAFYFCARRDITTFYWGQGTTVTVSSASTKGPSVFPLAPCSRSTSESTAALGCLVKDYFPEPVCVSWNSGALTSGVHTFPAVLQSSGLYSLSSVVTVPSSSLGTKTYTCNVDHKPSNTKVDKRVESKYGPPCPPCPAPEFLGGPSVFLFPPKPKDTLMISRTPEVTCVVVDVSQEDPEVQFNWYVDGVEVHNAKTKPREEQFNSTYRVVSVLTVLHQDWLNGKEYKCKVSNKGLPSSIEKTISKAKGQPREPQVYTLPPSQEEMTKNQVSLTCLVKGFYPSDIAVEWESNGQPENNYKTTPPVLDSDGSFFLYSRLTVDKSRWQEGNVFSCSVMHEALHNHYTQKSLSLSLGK
light: DIQLTQSPSSLSASVGDRVTMSCKSSQSVLYSANHKNYLAWYQQKPGKAPKLLIYWASTRESGVPSRFSGSGSGTDFTFTISSLQPEDIATYYCHQYLSSWTFGGGTKLEIKRTVAAPSVFIFPPSDEQLKSGTASVVCLLNNFYPREAKVQWKVDNALQSGNSQESVTEQDSKDSTYSLSSTLTLSKADYEKHKVYACEVTHQGLSSPVTKSFNRGEC
modifications: Tap18Hr1 linker-drug (monomethyl dolastatin 10) on the introduced Cys 155 (EU numbering); site-specific conjugation, DAR 1.58-2.01
notes: also called hLL2-T155C-IgG4p Tap18Hr1 conjugate
- % inhibition, WST-1 cytotoxicity, Daudi cells, 1.1 µg/mL (human CD22 [2]): 66.2%
- % inhibition, WST-1 cytotoxicity, Daudi cells, 3.3 µg/mL (human CD22 [2]): 70.2%
- % inhibition, WST-1 cytotoxicity, NALM-6 cells, 10 ug/ml (human CD22 [2]): 45.3%
- % inhibition, WST-1 cytotoxicity, REH cells, 10 ug/ml (human CD22 [2]): 22.4%
- % inhibition, WST-1 cytotoxicity, Ramos cells, 1.1 µg/mL (human CD22 [2]): 89.4%
- % inhibition, WST-1 cytotoxicity, Ramos cells, 3.3 µg/mL (human CD22 [2]): 94.9%

- MFI (human CD22 [6]): 1370
B5: hLL2-T169C-IgG1-Tap18Hr1 (antibody)
heavy: not shown
light: DIQLTQSPSSLSASVGDRVTMSCKSSQSVLYSANHKNYLAWYQQKPGKAPKLLIYWASTRESGVPSRFSGSGSGTDFTFTISSLQPEDIATYYCHQYLSSWTFGGGTKLEIKRTVAAPSVFIFPPSDEQLKSGTASVVCLLNNFYPREAKVQWKVDNALQSGNSQESVTEQDSKDSTYSLSSTLTLSKADYEKHKVYACEVTHQGLSSPVTKSFNRGEC
modifications: Tap18Hr1 linker-drug (monomethyl dolastatin 10) on the introduced Cys 169 (EU numbering); site-specific conjugation, DAR 1.58-2.01
notes: also called hLL2-T169C-IgG1 Tap18Hr1 conjugate
- % inhibition, WST-1 cytotoxicity, Daudi cells, 1.1 µg/mL (human CD22 [5]): 69.8%
- % inhibition, WST-1 cytotoxicity, Daudi cells, 3.3 µg/mL (human CD22 [5]): 73.6%
- % inhibition, WST-1 cytotoxicity, Ramos cells, 1.1 µg/mL (human CD22 [5]): 85.7%
- % inhibition, WST-1 cytotoxicity, Ramos cells, 3.3 µg/mL (human CD22 [5]): 91.4%

- MFI (human CD22 [7]): 74
- MFI (human CD22 [8]): 761
B6: hLL2-T169C-IgG4p (antibody, name in EU numbering)
heavy: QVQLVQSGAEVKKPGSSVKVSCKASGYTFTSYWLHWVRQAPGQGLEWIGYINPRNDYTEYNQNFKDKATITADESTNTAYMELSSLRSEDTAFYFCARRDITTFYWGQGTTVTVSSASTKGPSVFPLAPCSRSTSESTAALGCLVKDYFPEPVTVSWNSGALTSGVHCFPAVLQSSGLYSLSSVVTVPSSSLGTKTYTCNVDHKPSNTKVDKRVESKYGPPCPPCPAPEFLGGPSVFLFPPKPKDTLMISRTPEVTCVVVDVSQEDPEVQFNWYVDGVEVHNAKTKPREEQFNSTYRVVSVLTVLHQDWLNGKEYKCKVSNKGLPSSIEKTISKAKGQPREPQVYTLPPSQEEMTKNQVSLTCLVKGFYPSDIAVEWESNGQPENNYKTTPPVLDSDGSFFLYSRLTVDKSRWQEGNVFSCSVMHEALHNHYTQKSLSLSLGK
light: DIQLTQSPSSLSASVGDRVTMSCKSSQSVLYSANHKNYLAWYQQKPGKAPKLLIYWASTRESGVPSRFSGSGSGTDFTFTISSLQPEDIATYYCHQYLSSWTFGGGTKLEIKRTVAAPSVFIFPPSDEQLKSGTASVVCLLNNFYPREAKVQWKVDNALQSGNSQESVTEQDSKDSTYSLSSTLTLSKADYEKHKVYACEVTHQGLSSPVTKSFNRGEC
notes: Position is EU numbering

- MFI (human CD22 [7]): 79
- MFI (human CD22 [8]): 601
B8: hLL2-T155C-IgG4p (antibody, name in EU numbering)
heavy: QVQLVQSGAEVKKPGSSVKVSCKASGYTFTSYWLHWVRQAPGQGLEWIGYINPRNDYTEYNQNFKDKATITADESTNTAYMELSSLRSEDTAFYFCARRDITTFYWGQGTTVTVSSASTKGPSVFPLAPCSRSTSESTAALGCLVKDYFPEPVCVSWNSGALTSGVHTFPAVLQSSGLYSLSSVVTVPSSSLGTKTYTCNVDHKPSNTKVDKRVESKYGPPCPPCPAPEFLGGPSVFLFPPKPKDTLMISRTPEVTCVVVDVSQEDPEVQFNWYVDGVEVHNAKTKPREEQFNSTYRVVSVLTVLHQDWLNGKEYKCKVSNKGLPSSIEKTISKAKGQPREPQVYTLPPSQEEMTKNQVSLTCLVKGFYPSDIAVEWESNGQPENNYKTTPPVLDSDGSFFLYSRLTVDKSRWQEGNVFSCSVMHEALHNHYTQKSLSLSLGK
light: DIQLTQSPSSLSASVGDRVTMSCKSSQSVLYSANHKNYLAWYQQKPGKAPKLLIYWASTRESGVPSRFSGSGSGTDFTFTISSLQPEDIATYYCHQYLSSWTFGGGTKLEIKRTVAAPSVFIFPPSDEQLKSGTASVVCLLNNFYPREAKVQWKVDNALQSGNSQESVTEQDSKDSTYSLSSTLTLSKADYEKHKVYACEVTHQGLSSPVTKSFNRGEC
notes: Position is EU numbering

Second part, the binder before the results:

B1: hLL2-T155C-IgG1 (antibody)
heavy: not shown
light: DIQLTQSPSSLSASVGDRVTMSCKSSQSVLYSANHKNYLAWYQQKPGKAPKLLIYWASTRESGVPSRFSGSGSGTDFTFTISSLQPEDIATYYCHQYLSSWTFGGGTKLEIKRTVAAPSVFIFPPSDEQLKSGTASVVCLLNNFYPREAKVQWKVDNALQSGNSQESVTEQDSKDSTYSLSSTLTLSKADYEKHKVYACEVTHQGLSSPVTKSFNRGEC
notes: Position is EU numbering
- MFI (human CD22 [1]): 1250

B2: hLL2-S442C-IgG4p-Tap18Hr1 (antibody, name in EU numbering)
heavy: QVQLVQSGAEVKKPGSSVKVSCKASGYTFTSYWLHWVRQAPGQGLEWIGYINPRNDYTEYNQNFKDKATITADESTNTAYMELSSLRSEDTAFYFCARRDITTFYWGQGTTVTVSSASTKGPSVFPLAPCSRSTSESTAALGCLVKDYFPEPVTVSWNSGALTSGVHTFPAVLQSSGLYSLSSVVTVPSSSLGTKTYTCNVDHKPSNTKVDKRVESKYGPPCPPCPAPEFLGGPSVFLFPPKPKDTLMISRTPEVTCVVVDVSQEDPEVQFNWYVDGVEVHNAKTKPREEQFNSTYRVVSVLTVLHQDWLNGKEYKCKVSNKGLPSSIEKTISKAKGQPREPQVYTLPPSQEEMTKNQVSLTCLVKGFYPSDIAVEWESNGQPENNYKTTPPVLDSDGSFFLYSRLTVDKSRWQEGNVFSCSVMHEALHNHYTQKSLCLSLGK
light: DIQLTQSPSSLSASVGDRVTMSCKSSQSVLYSANHKNYLAWYQQKPGKAPKLLIYWASTRESGVPSRFSGSGSGTDFTFTISSLQPEDIATYYCHQYLSSWTFGGGTKLEIKRTVAAPSVFIFPPSDEQLKSGTASVVCLLNNFYPREAKVQWKVDNALQSGNSQESVTEQDSKDSTYSLSSTLTLSKADYEKHKVYACEVTHQGLSSPVTKSFNRGEC
modifications: Tap18Hr1 linker-drug (monomethyl dolastatin 10) on the introduced Cys 442 (EU numbering); site-specific conjugation, DAR 1.58-2.01
notes: also called hLL2-S442C-IgG4p Tap18Hr1 conjugate
- % inhibition, WST-1 cytotoxicity, Daudi cells, 1.1 µg/mL (human CD22 [2]): 65.8%
- % inhibition, WST-1 cytotoxicity, Daudi cells, 3.3 µg/mL (human CD22 [2]): 70.6%
- % inhibition, WST-1 cytotoxicity, NALM-6 cells, 10 ug/ml (human CD22 [2]): 28.5%
- % inhibition, WST-1 cytotoxicity, REH cells, 10 ug/ml (human CD22 [2]): 21.3%
- % inhibition, WST-1 cytotoxicity, Ramos cells, 1.1 µg/mL (human CD22 [2]): 86.9%
- % inhibition, WST-1 cytotoxicity, Ramos cells, 3.3 µg/mL (human CD22 [2]): 88.9%
- MFI (human CD22 [3]): 52
- MFI (human CD22 [4]): 481

B4: hLL2-T155C-IgG1-Tap18Hr1 (antibody)
heavy: not shown
light: DIQLTQSPSSLSASVGDRVTMSCKSSQSVLYSANHKNYLAWYQQKPGKAPKLLIYWASTRESGVPSRFSGSGSGTDFTFTISSLQPEDIATYYCHQYLSSWTFGGGTKLEIKRTVAAPSVFIFPPSDEQLKSGTASVVCLLNNFYPREAKVQWKVDNALQSGNSQESVTEQDSKDSTYSLSSTLTLSKADYEKHKVYACEVTHQGLSSPVTKSFNRGEC
modifications: Tap18Hr1 linker-drug (monomethyl dolastatin 10) on the introduced Cys 155 (EU numbering); site-specific conjugation, DAR 1.58-2.01
notes: also called hLL2-T155C-IgG1 Tap18Hr1 conjugate
- % inhibition, WST-1 cytotoxicity, Daudi cells, 1.1 µg/mL (human CD22 [5]): 71%
- % inhibition, WST-1 cytotoxicity, Daudi cells, 3.3 µg/mL (human CD22 [5]): 72.6%
- % inhibition, WST-1 cytotoxicity, Ramos cells, 1.1 µg/mL (human CD22 [5]): 84.9%
- % inhibition, WST-1 cytotoxicity, Ramos cells, 3.3 µg/mL (human CD22 [5]): 88.9%
- MFI (human CD22 [6]): 1230

B7: hLL2-S165C-IgG1-Tap18Hr1 (antibody)
heavy: not shown
light: DIQLTQSPSSLSASVGDRVTMSCKSSQSVLYSANHKNYLAWYQQKPGKAPKLLIYWASTRESGVPSRFSGSGSGTDFTFTISSLQPEDIATYYCHQYLSSWTFGGGTKLEIKRTVAAPSVFIFPPSDEQLKSGTASVVCLLNNFYPREAKVQWKVDNALQSGNSQESVTEQDSKDSTYSLSSTLTLSKADYEKHKVYACEVTHQGLSSPVTKSFNRGEC
modifications: Tap18Hr1 linker-drug (monomethyl dolastatin 10) on the introduced Cys 165 (EU numbering); site-specific conjugation, DAR 1.58-2.01
notes: also called hLL2-S165C-IgG1 Tap18Hr1 conjugate
- % inhibition, WST-1 cytotoxicity, Daudi cells, 1.1 µg/mL (human CD22 [5]): 60.5%
- % inhibition, WST-1 cytotoxicity, Daudi cells, 3.3 µg/mL (human CD22 [5]): 65.1%
- % inhibition, WST-1 cytotoxicity, Ramos cells, 1.1 µg/mL (human CD22 [5]): 72.6%
- % inhibition, WST-1 cytotoxicity, Ramos cells, 3.3 µg/mL (human CD22 [5]): 79.4%
- MFI (human CD22 [6]): 1230
